Results taken from publication PMC10243368.

Target: KRAS G12V (whole mutated KRAS gene linked to the LAMP3 signal peptide, as mRNA) peptide on (human)
Test: B13.1 TILs stimulated with APCs loaded with KRAS G12V mRNA, sorted PI- CD3+ CD137+, 10x single-cell V(D)J sequencing; ex vivo sorted cells
Conditions: chains alpha TRAV23/DV6*01 TRAJ58*01 CDR3:beta TRBV5-6*01 TRBJ2-7*01 CDR3

B1: B13.1.2 (peptide)
chain 1: CAASEETSGSRLTF
chain 2: CASSWNLQASYEQYF
  clonotype frequency among the sorted CD3+ CD137+ cells: 32.8%
